# Patent US9260728B2, “Terpene synthases from Santalum” (UNIVERSITY OF BRITISH COLUMBIA, priority 2009, dated 2016)
# Tests used:
# Assay type in all cases: biochemical
# [1] = Steady-state enzyme kinetic assays
# Procedure: For determination of steady-state enzyme kinetic constants, conditions were as described previously except the enzyme concentration was kept at 10 nM. Substrate concentrations ranged from 1 uM to 100 uM, and reactions were incubated at 30° C. for exactly 5 mins. Reactions were quenched by the addition of 500 μL 0.5 M EDTA, pH 8.0 and vortexed as above.
# (§1) GC-FID was performed on a Shimadzu GC2010 with a 30 m 0.25 mm ID, 0.25 μm film DB-WAX column with He as the carrier gas. Splitless injection (2 μL) was used for all analyses. Conditions were as follows: injector 200° C., detector 250° C., column flow rate 1 mL/min. Oven program: 40° C. for 3 min, then 8° C./min to 180° C., held 5 min, then 10° C./min to 220° C., held 10 min. Needle height was adjusted to only draw from the upper organic layer of all sample vials. GC-MS was performed on a Shimadzu GC2010 with the same DB-WAX column and using He as the carrier gas. Conditions were as follows: injector 200° C., MS interface 240° C., ion source 200° C. Oven program: 40° C. for 3 min, then 8° C./min to 180° C., held 5 min, then 10° C./min to 220° C., held 10 min. Solvent cut time was set to 5 min. For product identification, total ion monitoring was used, scanning from m/z 45 to m/z 300. For kinetic assays, single ion monitoring of the sesquiterpene base ions m/z 91, 93 and 94 were used. Likewise monoterpene base ions (m/z 69, 71 and 93) were monitored. An internal standard (isobutyl benzene, 30 μM) was added to the hexane used to overlay each reaction. Detector response factors were calculated based on the santalene standard prepared earlier and used to determine the product concentrations for kinetic analysis.
# [2] = GC-FID determination of reaction products of terpene synthases from FPP with magnesium or manganese
# [3] = as above; remark: listed apart in the source
# Procedure: Enzyme assays for all recombinant proteins were done in triplicate using the GC vial method described by O'Maille et al. (Anal. Biochem. 335:[…] (2004). For enzyme assays where only product identification was needed, 10 μg of protein was used in a final volume of 500 μL of reaction buffer (25 mM HEPES, 10% glycerol, 5 mM DTT and 10 mM of either Mg^2+ or Mn^2+. Substrates (FPP and GPP) were added to a final reaction concentration of 100 μM. Vials were overlaid with 500 μL of hexane to trap volatile products and incubated at 30° C. for 2 h. Mixtures were vortexed for 1 min to extract all volatiles and the vials were centrifuged to separate the organic layer.
# Product mixtures were analysed by GC-MS in scan mode for product identification. A standard containing the three santalenes and α-trans-bergamotene was prepared by flash chromatography of 2 mL of neat S. album oil over silica and eluted in hexane. A final yield of 25 mg was resuspended in EtOAc and purity was confirmed by GC-FID with conditions described below. All mass spectra were compared to the NIST 2005 library and the literature. Retention indices were determined for all compounds using an n-alkane standard and compared to the literature (R. P. Adams, “Identification of essential oil components by gas chromatography/mass spectrometry,” Allured Publishing Corporation, Carol Stream, Ill. (1995)).
# as §1
molecule,measurement,setting,value
"SauSSy: santalene synthase from Santalum austrocaledonicum, gene SEQ ID NO:3, protein SEQ ID NO:4 (protein, listed as Santalum austrocaledonicum, SauSSy Protein) MDSSTATAMTAPFIDPTDHVNLKTDTDASENRRMGNYKPSIWNYDFLQSLATHHNIVEERHLKLAEKLKGQVKFMFGAPMEPLAKLELVDVVQRLGLNHRFETEIKEALFSIYKDESNGWWFGHLHATSLRFRLLRQCGLFIPQDVFKTFQNKTGEFDMKLCDNVKGLLSLYEASYLGWKGENILDEAKAFATKYLKSAWENISEKWLAKRVKHALALPLHWRVPRIEARWFIEAYEQEANMNPTLLKLAKLDFNMVQSIHQKEIGELARWWVTTGLDKLAFARNNLLQSYMWSCAIASDPKFKLARETIVEIGSVLTVVDDAYDVYGSMDELDLYTSSVERWSCVEIDKLPNTLKLIFMSMFNKTNEVGLRVQHERGYNSIPTFIKAWVQQCKSYQKEARWFHGGHTPPLEEYSLNGLVSIGFPLLLITGYVAIAENEAALDKVHPLPDLLHYSSLLSRLINDIGTSPDEMARGDNLKSIHCYMNGTGASEEVAREHIKGVIEENWKILNQCCFDQSQFQEPFITFNLNSVRGSHFFYEFGDGFGVTDSWTKVDMKSVLIDPIPLGEE",Kcat,[1]; FPP,0.0277 s⁻¹
same,Vmax,[1]; assays using FPP,0.54 µM/min
same,Relative % composition in oil produced by enzyme: epi-β-santalol,[2],4.8%
same,Relative % composition in oil produced by enzyme: α-santalol,[2],51.3%
same,E-β-farnesene among reaction products (GC-FID),"[3]; FPP Mg, mean",1.4
same,Z-β-farnesene among reaction products (GC-FID),"[3]; FPP Mg, mean",0.6
same,epi-β-santalene among reaction products (GC-FID),"[3]; FPP Mg, mean",4.8
same,α-E-bergamotene among reaction products (GC-FID),"[3]; FPP Mg, mean",14.5
same,α-santalene among reaction products (GC-FID),"[3]; FPP Mg, mean",51.3
same,β-santalene among reaction products (GC-FID),"[3]; FPP Mg, mean",27.4
same,E-β-farnesene among reaction products (GC-FID),"[3]; FPP Mg, replicate 1",1.5
same,Z-β-farnesene among reaction products (GC-FID),"[3]; FPP Mg, replicate 1",0.6
same,epi-β-santalene among reaction products (GC-FID),"[3]; FPP Mg, replicate 1",4.7
same,α-E-bergamotene among reaction products (GC-FID),"[3]; FPP Mg, replicate 1",13.8
same,α-santalene among reaction products (GC-FID),"[3]; FPP Mg, replicate 1",51.7
same,β-santalene among reaction products (GC-FID),"[3]; FPP Mg, replicate 1",27.8
same,E-β-farnesene among reaction products (GC-FID),"[3]; FPP Mg, replicate 2",1.3
same,Z-β-farnesene among reaction products (GC-FID),"[3]; FPP Mg, replicate 2",0.6
same,epi-β-santalene among reaction products (GC-FID),"[3]; FPP Mg, replicate 2",4.6
same,α-E-bergamotene among reaction products (GC-FID),"[3]; FPP Mg, replicate 2",14.6
same,α-santalene among reaction products (GC-FID),"[3]; FPP Mg, replicate 2",51.5
same,β-santalene among reaction products (GC-FID),"[3]; FPP Mg, replicate 2",27.5
same,E-β-farnesene among reaction products (GC-FID),"[3]; FPP Mg, replicate 3",1.5
same,Z-β-farnesene among reaction products (GC-FID),"[3]; FPP Mg, replicate 3",0.5
same,epi-β-santalene among reaction products (GC-FID),"[3]; FPP Mg, replicate 3",5.1
same,α-E-bergamotene among reaction products (GC-FID),"[3]; FPP Mg, replicate 3",15.2
same,α-santalene among reaction products (GC-FID),"[3]; FPP Mg, replicate 3",50.7
same,β-santalene among reaction products (GC-FID),"[3]; FPP Mg, replicate 3",27.0
same,E-β-farnesene among reaction products (GC-FID),"[3]; FPP Mn, mean",8.5
same,Z-β-farnesene among reaction products (GC-FID),"[3]; FPP Mn, mean",0.9
same,epi-β-santalene among reaction products (GC-FID),"[3]; FPP Mn, mean",1.2
same,α-E-bergamotene among reaction products (GC-FID),"[3]; FPP Mn, mean",73.6
same,α-santalene among reaction products (GC-FID),"[3]; FPP Mn, mean",10.2
same,β-santalene among reaction products (GC-FID),"[3]; FPP Mn, mean",5.3
same,E-β-farnesene among reaction products (GC-FID),"[3]; FPP Mn, replicate 1",8.3
same,Z-β-farnesene among reaction products (GC-FID),"[3]; FPP Mn, replicate 1",0.9
same,epi-β-santalene among reaction products (GC-FID),"[3]; FPP Mn, replicate 1",1.4
same,α-E-bergamotene among reaction products (GC-FID),"[3]; FPP Mn, replicate 1",72.5
same,α-santalene among reaction products (GC-FID),"[3]; FPP Mn, replicate 1",10.3
same,β-santalene among reaction products (GC-FID),"[3]; FPP Mn, replicate 1",5.3
same,E-β-farnesene among reaction products (GC-FID),"[3]; FPP Mn, replicate 2",8.5
same,Z-β-farnesene among reaction products (GC-FID),"[3]; FPP Mn, replicate 2",0.9
same,epi-β-santalene among reaction products (GC-FID),"[3]; FPP Mn, replicate 2",0.8
same,α-E-bergamotene among reaction products (GC-FID),"[3]; FPP Mn, replicate 2",73.8
same,α-santalene among reaction products (GC-FID),"[3]; FPP Mn, replicate 2",10.5
same,β-santalene among reaction products (GC-FID),"[3]; FPP Mn, replicate 2",5.5
same,E-β-farnesene among reaction products (GC-FID),"[3]; FPP Mn, replicate 3",8.6
same,Z-β-farnesene among reaction products (GC-FID),"[3]; FPP Mn, replicate 3",0.9
same,epi-β-santalene among reaction products (GC-FID),"[3]; FPP Mn, replicate 3",1.2
same,α-E-bergamotene among reaction products (GC-FID),"[3]; FPP Mn, replicate 3",74.4
same,α-santalene among reaction products (GC-FID),"[3]; FPP Mn, replicate 3",9.7
same,β-santalene among reaction products (GC-FID),"[3]; FPP Mn, replicate 3",5.1
same,Relative % composition in oil produced by enzyme: E-α-bergamotol,[3]; GC-FID,14.5%
same,Relative % composition in oil produced by enzyme: β-santalol,[3]; GC-FID,27.4%
